What all share (assay): competition of live bEnd.3 (MBEC) cell surface binding by excess recombinant receptor ectodomain
Test [1] deals with T1, recombinant insulin receptor ectodomain (UniProt P15208 28-946, limits assumed).
T1 construct: extracellular domain; Bought; The chain make-up (alpha/beta) is not described; also called rIR; IR
The method, then: (§1) Competition assay. 2 μM recombinant receptor ecto-domain proteins, rIR (R&D systems, 7544-MR), rLDLR (R&D systems, 2255-LD), and rTfR (Sino Biologics, 50741-M07H) were incubated with 200 nM VLR-Fc proteins in serum-free complete growth media for 30 minutes and then applied to serum-starved bEnd.3 cells in 96-well plates to allow for VLR-Fc binding to cell surface receptors. Plates were incubated at 4° C. for 2 hours. After extensive washing with ice cold PBS cells were fixed with 2% PFA, permeabilized, labeled with IRDye reagents, and analyzed as described above.

Test [2] deals with T2, recombinant low-density lipoprotein receptor ectodomain (UniProt P35951 22-790, limits assumed).
T2 construct: extracellular domain; Bought; also called rLDLR; LDLR
The method, then: as §1

The target of test [3] is T3, recombinant transferrin receptor ectodomain (UniProt Q62351 89-763, limits assumed).
T3 construct: extracellular domain; Bought; also called rTfR; TfR
The procedure:
as §1

The results in this text go back to patent publication US20220204583A1 (WISCONSIN ALUMNI RESEARCH FOUNDATION, published 2022).

T1 sequence (P15208 28-946 limits assumed): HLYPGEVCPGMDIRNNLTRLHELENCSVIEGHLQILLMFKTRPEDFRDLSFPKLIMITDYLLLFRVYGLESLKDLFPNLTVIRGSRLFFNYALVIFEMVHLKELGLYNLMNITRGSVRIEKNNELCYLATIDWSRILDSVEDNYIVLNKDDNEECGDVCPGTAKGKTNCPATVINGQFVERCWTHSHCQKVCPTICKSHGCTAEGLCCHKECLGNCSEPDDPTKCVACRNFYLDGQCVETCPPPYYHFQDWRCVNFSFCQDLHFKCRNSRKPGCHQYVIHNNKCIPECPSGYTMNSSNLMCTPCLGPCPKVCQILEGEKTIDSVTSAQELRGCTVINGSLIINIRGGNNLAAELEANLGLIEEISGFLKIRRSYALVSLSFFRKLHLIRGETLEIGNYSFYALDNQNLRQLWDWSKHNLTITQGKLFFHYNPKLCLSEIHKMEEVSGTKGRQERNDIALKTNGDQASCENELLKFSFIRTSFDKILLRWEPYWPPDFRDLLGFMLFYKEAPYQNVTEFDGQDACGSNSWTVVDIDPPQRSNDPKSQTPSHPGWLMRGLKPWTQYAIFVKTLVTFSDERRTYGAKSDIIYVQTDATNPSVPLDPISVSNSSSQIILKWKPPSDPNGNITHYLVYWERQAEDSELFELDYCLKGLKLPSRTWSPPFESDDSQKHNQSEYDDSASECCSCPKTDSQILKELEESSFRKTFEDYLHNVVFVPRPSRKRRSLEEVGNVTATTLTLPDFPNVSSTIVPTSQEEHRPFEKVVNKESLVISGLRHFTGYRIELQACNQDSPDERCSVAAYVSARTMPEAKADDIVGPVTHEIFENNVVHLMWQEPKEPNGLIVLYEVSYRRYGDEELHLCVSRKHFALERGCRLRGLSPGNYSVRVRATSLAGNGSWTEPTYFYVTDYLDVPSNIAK
T2 sequence (P35951 22-790 limits assumed): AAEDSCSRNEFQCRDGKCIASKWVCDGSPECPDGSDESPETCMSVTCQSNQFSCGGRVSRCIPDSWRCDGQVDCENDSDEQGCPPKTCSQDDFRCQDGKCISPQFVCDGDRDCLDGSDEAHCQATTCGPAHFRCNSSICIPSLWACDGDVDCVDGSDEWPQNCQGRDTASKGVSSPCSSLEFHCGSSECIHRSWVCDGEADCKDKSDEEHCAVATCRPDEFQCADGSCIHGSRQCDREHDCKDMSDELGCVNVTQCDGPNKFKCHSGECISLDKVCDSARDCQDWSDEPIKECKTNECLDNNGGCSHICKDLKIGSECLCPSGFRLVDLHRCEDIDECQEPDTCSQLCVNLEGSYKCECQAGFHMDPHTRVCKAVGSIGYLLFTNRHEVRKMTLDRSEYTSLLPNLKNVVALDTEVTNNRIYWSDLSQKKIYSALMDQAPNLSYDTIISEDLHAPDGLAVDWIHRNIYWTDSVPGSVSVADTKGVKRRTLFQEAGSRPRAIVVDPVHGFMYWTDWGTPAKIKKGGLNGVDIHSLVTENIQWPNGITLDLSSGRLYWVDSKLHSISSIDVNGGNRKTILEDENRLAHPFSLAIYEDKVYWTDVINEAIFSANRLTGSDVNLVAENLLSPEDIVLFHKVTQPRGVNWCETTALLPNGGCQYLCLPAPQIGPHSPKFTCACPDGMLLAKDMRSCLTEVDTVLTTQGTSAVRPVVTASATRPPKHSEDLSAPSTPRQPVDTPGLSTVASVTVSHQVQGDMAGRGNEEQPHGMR
T3 sequence (Q62351 89-763 limits assumed): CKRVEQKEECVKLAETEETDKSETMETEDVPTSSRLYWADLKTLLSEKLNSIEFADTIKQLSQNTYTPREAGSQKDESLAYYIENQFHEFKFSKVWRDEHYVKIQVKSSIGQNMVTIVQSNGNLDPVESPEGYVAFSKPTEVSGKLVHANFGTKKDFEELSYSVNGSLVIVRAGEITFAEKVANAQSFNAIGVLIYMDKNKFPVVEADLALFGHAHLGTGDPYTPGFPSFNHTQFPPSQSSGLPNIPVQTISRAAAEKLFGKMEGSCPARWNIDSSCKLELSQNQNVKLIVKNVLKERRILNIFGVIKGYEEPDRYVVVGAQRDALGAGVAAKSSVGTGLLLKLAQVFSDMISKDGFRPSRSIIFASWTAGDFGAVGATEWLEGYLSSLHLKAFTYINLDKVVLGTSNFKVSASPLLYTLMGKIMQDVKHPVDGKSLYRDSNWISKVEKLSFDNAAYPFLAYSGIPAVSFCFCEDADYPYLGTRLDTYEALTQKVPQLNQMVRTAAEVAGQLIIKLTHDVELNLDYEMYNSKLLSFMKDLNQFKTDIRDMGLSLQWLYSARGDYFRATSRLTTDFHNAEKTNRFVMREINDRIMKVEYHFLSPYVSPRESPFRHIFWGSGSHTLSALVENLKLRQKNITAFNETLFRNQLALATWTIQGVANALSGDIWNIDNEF

B1: VLR-Fc-46 (Fc fusion)
chain: ACPSQCSCSGTTVDCSGKSLASVPTGIPTTTRWLHLHRNQLTKLEPGVFDSLTQLTYLNLGGNQLTALPVGVFDKLTNLKELKLYSNQLQALSEGLFDRLGKLQHLDLSKNQLKSIPHGAFDRLSSLTHAYLFGNPWDCECRDIMYLRNWVADHTSIVMRWDGKAVNDPDSAKCAGTNTPVRAVTEASTSPSKCPGYVAT
notes: Dimeric recombinant VLR-rabbit IgG-Fc fusion secreted from HEK293F cells; also called VLR 46; VLR46; not shown: rabbit IgG-Fc from vector pIRES-VLR-Fc, C-terminal of the VLR
Turning to B1, the binding result is given as “no binding (tested: 2 µM receptor ectodomain, 200 nM VLR-Fc)” in test [1]; “no binding (tested: 2 µM receptor ectodomain, 200 nM VLR-Fc)” in test [2]; “no binding (tested: 2 µM receptor ectodomain, 200 nM VLR-Fc)” in test [3].

B2: VLR-Fc-11 (Fc fusion)
chain: ACPSQCSCSGTEVRCESRSLASVPAGIPTTTRRLHLHRNQLTKLEPGVFDSLTQLTYLNLGGNQLTALPVGVFDKLTNLKELKLYSNQLQALSEGLFDRLGKLQHLDLSKNQLKSIPHGAFDRLSSLTHAYLFGNPWDCECRDIMYLRNWVADHTSIVMRWDGKAVNDPDSAKCAGTNTPVRAVTEASTSPSKCPGYVAT
notes: Dimeric recombinant VLR-rabbit IgG-Fc fusion secreted from HEK293F cells; also called VLR 11; VLR11; not shown: rabbit IgG-Fc from vector pIRES-VLR-Fc, C-terminal of the VLR
With B2, the binding result in test [1] was “no binding (tested: 2 µM receptor ectodomain, 200 nM VLR-Fc)”; in test [2], “no binding (tested: 2 µM receptor ectodomain, 200 nM VLR-Fc)”; in test [3] it was “no binding (tested: 2 µM receptor ectodomain, 200 nM VLR-Fc)”.

B3: VLR-Fc-30 (Fc fusion)
chain: ACPSQCSCSGTTVDCSGKSLASVPTGIPTTTQILRLYRNQITKLEPGVFDSLTQLTYLNLGGNQLTALPVGVFDKLTNLKELKLYSNQLQALSEGLFDRLGKLQHLDLSKNQLKSIPHGAFDRLSSLTHAYLFGNPWDCECRDIMYLRNWVADHTSIVMRWDGKAVNDPDSAKCAGTNTPVRAVTEASTSPSKCPGYVAT
notes: Dimeric recombinant VLR-rabbit IgG-Fc fusion secreted from HEK293F cells; also called VLR 30; VLR30; not shown: rabbit IgG-Fc from vector pIRES-VLR-Fc, C-terminal of the VLR
As for B3, the binding result is listed as “no binding (tested: 2 µM receptor ectodomain, 200 nM VLR-Fc)” in test [1]; “no binding (tested: 2 µM receptor ectodomain, 200 nM VLR-Fc)” in test [2]; “no binding (tested: 2 µM receptor ectodomain, 200 nM VLR-Fc)” in test [3].
